According to patent US20260275280A1, “DIRECTED DIFFERENTIATION PROTOCOLS TO DERIVE BONE FIDE SPINAL SENSORY INTERNEURONS” (THE REGENTS OF THE UNIVERSITY OF CALIFORNIA, priority 2022, published 2026):
Entries after “also recorded” stand apart in the source; their conditions may differ.

B1: Wnt9b: mouse recombinant Wnt9b, non-canonical Wnt ligand (protein, UniProt O35468 24-359, looked up)
Protein Wnt-9b: AAYFGLTGREVLTPFPGLGTAAAPAQAGAHLKQCDLLKLSRRQKQLCRREPGLAETLRDAAHLGLLECQFQFRQERWNCSLEGRTGLLQRGFKETAFLYAVSAAALTHALARACSAGRMERCTCDDSPGLESRQAWQWGVCGDNLKYSTKFLSNFLGPKRGSKDLRARADAHNTHVGIKAVKSGLRTTCKCHGVSGSCAVRTCWKQLSPFRETGQVLKLRYDTAVKVSSATNEALGRLELWAPAKPGGPAKGLAPRPGDLVYMEDSPSFCRPSKYSPGTAGRVCSRDSSCSSLCCGRGYDTQSRMVVFSCHCQVQWCCYVECQQCAQQELVYTCKR
B2: Wnt4: mouse recombinant Wnt4 (protein, UniProt P22724 23-351, looked up)
Protein Wnt-4: SNWLYLAKLSSVGSISEEETCEKLKGLIQRQVQMCKRNLEVMDSVRRGAQLAIEECQYQFRNRRWNCSTLDSLPVFGKVVTQGTREAAFVYAISSAGVAFAVTRACSSGELEKCGCDRTVHGVSPQGFQWSGCSDNIAYGVAFSQSFVDVRERSKGASSSRALMNLHNNEAGRKAILTHMRVECKCHGVSGSCEVKTCWRAVPPFRQVGHALKEKFDGATEVEPRRVGSSRALVPRNAQFKPHTDEDLVYLEPSPDFCEQDIRSGVLGTRGRTCNKTSKAIDGCELLCCGRGFHTAQVELAERCGCRFHWCCFVKCRQCQRLVEMHTCR
B3: Wnt3a: human recombinant Wnt3a, canonical Wnt (protein, UniProt P56704 19-352, looked up)
Protein Wnt-3a: SYPIWWSLAVGPQYSSLGSQPILCASIPGLVPKQLRFCRNYVEIMPSVAEGIKIGIQECQHQFRGRRWNCTTVHDSLAIFGPVLDKATRESAFVHAIASAGVAFAVTRSCAEGTAAICGCSSRHQGSPGKGWKWGGCSEDIEFGGMVSREFADARENRPDARSAMNRHNNEAGRQAIASHMHLKCKCHGLSGSCEVKTCWWSQPDFRAIGDFLKDKYDSASEMVVEKHRESRGWVETLRPRYTYFKVPTERDLVYYEASPNFCEPNPETGSFGTRDRTCNVSSHGIDGCDLLCCGRGHNARAERRREKCRCVFHWCCYVSCQECTRVYDVHTCK
B4: Wnt1: human recombinant Wnt1, canonical Wnt (protein, UniProt P04628 28-370, looked up)
Proto-oncogene Wnt-1: ANSSGRWWGIVNVASSTNLLTDSKSLQLVLEPSLQLLSRKQRRLIRQNPGILHSVSGGLQSAVRECKWQFRNRRWNCPTAPGPHLFGKIVNRGCRETAFIFAITSAGVTHSVARSCSEGSIESCTCDYRRRGPGGPDWHWGGCSDNIDFGRLFGREFVDSGEKGRDLRFLMNLHNNEAGRTTVFSEMRQECKCHGMSGSCTVRTCWMRLPTLRAVGDVLRDRFDGASRVLYGNRGSNRASRAELLRLEPEDPAHKPPSPHDLVYFEKSPNFCTYSGRLGTAGTAGRACNSSSPALDGCELLCCGRGHRTRTQRVTERCNCTFHWCCHVSCRNCTHTRVLHECL
B5: Wnt2: human recombinant Wnt2, canonical Wnt (protein, UniProt P09544 26-360, looked up)
Protein Wnt-2: SWWYMRATGGSSRVMCDNVPGLVSSQRQLCHRHPDVMRAISQGVAEWTAECQHQFRQHRWNCNTLDRDHSLFGRVLLRSSRESAFVYAISSAGVVFAITRACSQGEVKSCSCDPKKMGSAKDSKGIFDWGGCSDNIDYGIKFARAFVDAKERKGKDARALMNLHNNRAGRKAVKRFLKQECKCHGVSGSCTLRTCWLAMADFRKTGDYLWRKYNGAIQVVMNQDGTGFTVANERFKKPTKNDLVYFENSPDYCIRDREAGSLGTAGRVCNLTSRGMDSCEVMCCGRGYDTSHVTRMTKCGCKFHWCCAVRCQDCLEALDVHTCKAPKNADWTTAT

Experiments:
Type in all cases: cell-based, mouse
Wnt/β-catenin signaling = assay: Inhibition of Wnt/β-catenin signaling during dI differentiation (IHC and RT-qPCR at day 9)
Experimental: (§1) The mouse ESC line, MM13, was routinely maintained in ES cell media (DMEM+20% FBS) with 100u/ml of mouse leukocyte inducing factor (LIF). […] To prepare cells for the differentiation, ESC colonies were dissociated with 0.25% trypsin and plated on gelatin coated plates at 1:10 dilution to reduce MEF transfer. Cells cultured on gelatin coated plates and allowed to proliferate for 1-2 days. To initiate differentiation, cells were plated on 0.1% gelatin coated 24-well CellBIND dishes (Corning) at 20,000 cells/ml density in 0.5 ml/well N2/B27 medium that contains 10 ng/ml basic fibroblast growth factor (bFGF). The N2/B27 medium contains 1:1 portions of Advanced Dulbecco's modified Eagle Media (DMEM) F12 (Hyclone) and Neurobasal media (Thermo Fisher Scientific) supplemented with 0.5×N2, 1×B27 supplement (with Vitamin A), 2 mM L-glutamine, 0.1 mM 2-mercaptoethanol (ME), and 1% BSA. On day 1, small colonies of cells can be observed attached to the bottom of the wells. On day 2, cells were supplemented with 10 ng/ml bFGF and 5 μM CHIR99021 for 24 hours to induce a neuromesodermal identity (Gouti et al., 2014). On day 3, media was changed as follows: for protocol 1, cells were exposed to 100 nM RA for 48 hrs. For protocol 2, 10 ng/ml human recombinant BMP4 (Thermo Fisher Scientific) was added concomitantly with 100 nM RA (RA+BMP4) for 48 hrs. For protocol 3, cells were exposed to 100 nM RA for 24 hrs, followed by a pulse of RA+BMP4 for another 24 hours. To induce terminal differentiation in all three conditions, the medium containing growth factors was replaced with basic N2/B27 medium at day 5, and cell allowed to differentiate to day 9. At the end of the differentiation, the cultures were fixed for immunohistochemical analysis or lysed to obtain RNA for RNA-Seq or quantitative reverse transcriptase PCR analysis.
Immunohistochemistry: For 2d differentiations, adherent cultures were first washed with 1×PBS and fixed with fresh cold 4% PFA for 10 minutes in the well. Following fixation, cultures were washed twice with 1×PBS to remove any remaining PFA. Cells were blocked with 1×PBS with 1% heat inactivated horse serum for 1 hour and primary antibodies are added in the blocking solution for an overnight incubation at 4C. Following washes, species appropriate secondary antibodies (Jackson Immuno Research Laboratories) were added in 1× PBT (PBS+0.1% […]) for 1 hr. The cultures were then washed with 1× PBT to remove traces of secondary antibodies and counterstained with DAPI to stain nuclei. Plates were then imaged on Zeiss LSM800 inverted confocal microscope at 10× magnification.
(§2) Quantitative (a) RT-PCR analysis: RNA was isolated with RNeasy Mini Kit (Qiagen, cat no. 74104), and converted to cDNA using Superscript IV First Strand Synthesis kit (Thermo Fisher Scientific). qRT-PCR was performed using SYBR Green PCR Master Mix (Applied Biosystems) on Roche 480 Lightcycler (Roche). The relative fold expression was calculated using 2-AACt method of comparing the expression of the target gene with that of the housekeeping gene glyceraldehyde 3-phosphate dehydrogenase (Gapdh). All experiments were repeated at least 2-3 times (technical replicates) from at least two independent differentiations (biological replicates), and data is represented as mean±SEM.
To assess the role of canonical Wnt signaling in dI fate specification, we added endo-IWR1 (IWR1e), a small molecule inhibitor which blocks p-catenin function (Chen et al., 2009) to dPs from day 4-6 (FIG. 5A). By day 9, the RA+BMP4 condition robustly induces dlis-dI3s (FIG. 5F-51, 5N-5P).

[1] = test system: mESCs-derived NMPs / NPCs; assay: Bulk RNA-Seq differential expression and qRT-PCR after RA or RA+BMP4 treatment; settings: AGN193109 added in 10 molar excess with the RA
Experimental: Bulk-RNA sequencing and data processing: Total cell lysate was obtained in buffer RLT (Qiagen) at different time points from three independent differentiations (biological replicates) conducted parallelly. RNA extraction was performed using RNeasy mini kit (Qiagen) and the quality was determined using Agilent Technologies 2100 Bioanalyzer and only samples with a RIN score >8.0 were sequenced. Stranded libraries were constructed using Universal plus mRNA sequencing kit (NuGEN) and sequenced onto 2 lanes of NovaseqS1 to generate 30 million reads/sample. Obtained reads were aligned to the latest mouse reference genome (mm10) using the STAR spliced read aligner. Pearson correlation and principal component analysis (PCA) was performed to determine the similarities among the samples and replicates. Differentially expressed genes were identified using DESeq and EdgeR package on R platform. The candidate genes were selected using cutoff false discovery rate (FDR <0.05) and log fold change (>2). Differentially expressed gene lists were further subjected to Enrichr, Metascape (Zhou et al., 2019) and DAVID functional annotation tools to identify enriched gene ontology (GO) categories.
as §2
We took advantage of the directed differentiation protocols to investigate the unresolved mechanisms by which RA and BMP direct dI fate specification. To further validate the use of a stem cell model, we first assessed the genetic basis of the fate decisions mediated by RA signaling. During the 24 hr pulse of RA at day 3, Pax3 levels gradually increase, while T expression concomitantly declines (FIG. 12A). […] To identify the transcriptional changes occurring during this first commitment step, we performed bulk RNA-Seq at day 3 (NMP state), day 3.25 (early transcriptional response to RA) and day 4 (dP state1) (FIG. 11B).
We hypothesized that the addition of BMP4 to NPCs in dP state1, directs them to a more dorsal dP state, i.e. dP state2 (FIG. 11A). To define the transcriptional changes occurring after BMP4 addition, we performed bulk RNA-Seq at day 4 (dP state1), day 4.25 (early transcriptional response to RA+BMP4) and at day 5 (dP state2) (FIG. 4A). […] 78 genes, out of 411, were common between both time points (FIGS. 4B, 13B). Focusing on these common genes, we identified enriched functional processes using GO analyses. The GO terms included the BMP signaling pathway (FIG. 4C, Table 3), confirming that the analysis identified BMP responsive genes.

[2] = test system: mESCs derived spinal NPCs; assay: Sufficiency of Wnt ligands or CHIR for dI fates (RT-qPCR at day 9); settings: for identity of the BMP4-mediated dI fates (Lhx2, Foxd3, IsI2): RA+BMP4 protocol, Wnts 100 ng/ml or CHIR 5 μM for 24 hrs at day 5; for induction of BMP4 dependent dI fates (Lhx2, Foxd3, IsI1): added with RA at day 4 for 24 hrs, Wnts 100 ng/ml, CHIR 5 μM
Experimental: as §1, §2
We assessed these models, first by determining the effect of canonical Wnts (Wnt1, Wnt2, and Wnt3a), a non-canonical Wnt (Wnt9b) and a small molecule Wnt agonist (CHIR99021) on dI identity in the RA±BMP4 protocols. When Wnts were added in combination with RA, they were unable to induce the dorsal-most dIs by day 9 (FIG. 14A). […] Thus, Wnts are not sufficient to direct dI fate identity.

[3] = inhibitor added to RA+BMP4 (protocol 3) from day 4, 48 hours, day 9

Row | Molecule | identity of the BMP4-mediated dI fates (Lhx2, Foxd3, IsI2) [2] | induction of BMP4 dependent dI fates (Lhx2, Foxd3, IsI1) [2] | also measured
1 | O=C(Nc1cccc2cccnc12)c1ccc(N2C(=O)[C@@H]3[C@H](C2=O)[C@@H]2C=C[C@H]3C2)cc1 [IWR1e] |  |  | dI1 and dI2 differentiation (Wnt/β-catenin signaling; [3]): loss of dI1s and dI2s; also recorded: dramatic reduction in the dI1 and dI2 populations; also recorded: most strongly suppresses the differentiation of the BMP4-dependent dI1/dI2s; dI3 differentiation (Wnt/β-catenin signaling; [3]): dI3 differentiation was less affected; also recorded: modest increase in dI3s; also recorded: more modest effect on dI3s; dI4, dI5, dI6 fates (Wnt/β-catenin signaling; [3]): no suppression of Pax2+dI4/dI6 and Lmx1b+dI5 fates; also recorded: concomitant increases in dI4, dI5 and dI6s; also recorded: increase in the expression of dI4-dI6 specific genes; dP markers Pax3, Pax7, Olig3 (Wnt/β-catenin signaling; inhibitor added to RA+BMP4 condition): did not erode Pax3+pan-dorsal identity or Pax7 expression, but nevertheless did suppress Olig3; also recorded: prevents both the suppression of Pax7+dPs and induction of Olig3+dPs
2 | Cc1ccc(C2=CCC(C)(C)c3ccc(C#Cc4ccc(C(=O)O)cc4)cc32)cc1 [AGN193109] |  |  | upregulation of the RA-induced genes [1]: not upregulated
3 | B1 | no significant effect | neither canonical Wnts (Wnt1, Wnt2, Wnt3a, Wnt4, all at 100 ng/ml) nor a non-canonical Wnt ligand (Wnt9b) induce the BMP4 dependent dI fates | 
4 | B2 | no significant effect | neither canonical Wnts (Wnt1, Wnt2, Wnt3a, Wnt4, all at 100 ng/ml) nor a non-canonical Wnt ligand (Wnt9b) induce the BMP4 dependent dI fates | 
5 | B3 | no significant effect | neither canonical Wnts (Wnt1, Wnt2, Wnt3a, Wnt4, all at 100 ng/ml) nor a non-canonical Wnt ligand (Wnt9b) induce the BMP4 dependent dI fates | 
6 | B4 | no significant effect | neither canonical Wnts (Wnt1, Wnt2, Wnt3a, Wnt4, all at 100 ng/ml) nor a non-canonical Wnt ligand (Wnt9b) induce the BMP4 dependent dI fates | 
7 | B5 | no significant effect | neither canonical Wnts (Wnt1, Wnt2, Wnt3a, Wnt4, all at 100 ng/ml) nor a non-canonical Wnt ligand (Wnt9b) induce the BMP4 dependent dI fates | 
